For four substances, response and ratio to parent results are on record in article PMC13399123.

The target of test [1] is GST-SH3 (SH3 domain of cortactin fused to GST) (UniProt Q14247). In words: GST pull-down from cell lysates, anti-HS1BP3 immunoblot, quantified. Conditions: lysates of MKN-74 HS1BP3 KO cells rescued with EGFP-HS1BP3 WT or PRR3.1 mutant; n = 2; parent: est. 8.5; read off a plot; scale: % of GST-SH3 interaction. For orientation: A western blot detects proteins with antibodies after separation by electrophoresis.

Test [2] concerns the target cortactin (CTTN), endogenous in MKN-74 cells (UniProt Q14247). In words: GFP-trap pull-down from cell lysates, anti-cortactin immunoblot, quantified. Conditions: MKN-74 HS1BP3 KO cells expressing EGFP-HS1BP3 WT or PRR3.1 mutant; n = 4; parent: est. 1.0; read off a plot.
Test [3] addresses GST-SH3 (SH3 domain of cortactin fused to GST) (UniProt Q14247). In words: GST pull-down with recombinant proteins, anti-MBP immunoblot, quantified. Conditions: 10% of the input MBP protein loaded; n = 2; parent: est. 1.0; read off a plot.

Chain of GST-SH3 (SH3 domain of cortactin fused to GST) (Q14247 492-550): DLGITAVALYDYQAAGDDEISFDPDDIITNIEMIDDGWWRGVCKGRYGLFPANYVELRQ
Chain of EGFP-HS1BP3 WT (Q53T59 whole entry, change not shown): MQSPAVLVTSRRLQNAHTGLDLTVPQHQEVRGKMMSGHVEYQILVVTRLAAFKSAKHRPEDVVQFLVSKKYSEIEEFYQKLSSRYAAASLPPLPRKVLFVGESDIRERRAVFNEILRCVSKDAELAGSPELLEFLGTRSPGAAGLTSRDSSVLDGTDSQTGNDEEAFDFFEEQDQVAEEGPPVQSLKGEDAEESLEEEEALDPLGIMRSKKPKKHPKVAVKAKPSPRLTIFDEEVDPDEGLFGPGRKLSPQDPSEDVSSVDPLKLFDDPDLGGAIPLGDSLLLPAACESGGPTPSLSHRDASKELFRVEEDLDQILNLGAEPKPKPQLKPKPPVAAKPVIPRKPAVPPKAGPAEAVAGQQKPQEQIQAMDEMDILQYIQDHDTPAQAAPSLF
Chain of cortactin (CTTN), endogenous in MKN-74 cells (Q14247 whole entry, the tested form may be a part): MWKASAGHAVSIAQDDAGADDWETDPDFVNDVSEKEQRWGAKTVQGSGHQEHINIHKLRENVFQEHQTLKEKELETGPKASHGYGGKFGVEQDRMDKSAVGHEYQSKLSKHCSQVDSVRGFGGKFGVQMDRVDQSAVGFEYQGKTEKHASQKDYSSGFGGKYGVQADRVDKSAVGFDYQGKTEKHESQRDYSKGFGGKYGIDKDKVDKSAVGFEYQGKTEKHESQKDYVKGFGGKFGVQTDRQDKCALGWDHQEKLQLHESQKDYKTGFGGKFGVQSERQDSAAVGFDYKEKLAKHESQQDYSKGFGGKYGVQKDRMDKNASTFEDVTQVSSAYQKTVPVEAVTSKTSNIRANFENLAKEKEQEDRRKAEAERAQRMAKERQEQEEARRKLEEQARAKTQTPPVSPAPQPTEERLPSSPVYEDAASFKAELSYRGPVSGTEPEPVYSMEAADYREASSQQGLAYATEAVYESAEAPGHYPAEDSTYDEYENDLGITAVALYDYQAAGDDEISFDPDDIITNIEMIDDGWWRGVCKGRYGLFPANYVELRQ
Chain of full-length MBP-HS1BP3 (from UniProt Q53T59) PRR3.2 mut (prolines of PRR3.2 replaced with alanine) (Q53T59 whole entry, change not shown): as the sequence (Q53T59 whole entry, change not shown) above
Chain of full-length MBP-HS1BP3 (from UniProt Q53T59) PRR3.1+3.2 mut (prolines of PRR3.1 and PRR3.2 replaced with alanine) (Q53T59 whole entry, change not shown): as above
Chain of full-length MBP-HS1BP3 (from UniProt Q53T59) PRR3.1 mut (prolines of PRR3.1 replaced with alanine) (Q53T59 whole entry, change not shown): as above

On to “EGFP-HS1BP3 WT (from UniProt Q53T59) PRR3.1 mut (prolines of PRR3.1 replaced with alanine)”, for which the response in test [1] turned out to be 0.3. Further, in test [2], the ratio to parent turned out to be 0.82.

Turning to “full-length MBP-HS1BP3 (from UniProt Q53T59) PRR3.1 mut (prolines of PRR3.1 replaced with alanine)”, the ratio to parent in test [3] turned out to be 0.07.

For “full-length MBP-HS1BP3 (from UniProt Q53T59) PRR3.1+3.2 mut (prolines of PRR3.1 and PRR3.2 replaced with alanine)”, the ratio to parent in test [3] was 0.51.

In the case of “full-length MBP-HS1BP3 (from UniProt Q53T59) PRR3.2 mut (prolines of PRR3.2 replaced with alanine)”, the ratio to parent in test [3] came out at 0.31.
